Laboratory results taken from patent US20250257130A1 (NONA BIOSCIENCES SUZHOU, published 2025).
Residue numbers refer to the chain shown, from its start. Blank lines part the entries; values can stand above or below the binder they belong to.

How the values were obtained:
[1] = molecular target: T1, human ROR1 on cells (HEK293T-hROR1, PANC-1, A549) (human, UniProt Q01973 30-937); assay: flow cytometry, A549 cells
T1 construct: whole, on cells; one molecule for the three cell lines; also called huROR1; cell surface ROR1
T1 sequence (Q01973 30-937): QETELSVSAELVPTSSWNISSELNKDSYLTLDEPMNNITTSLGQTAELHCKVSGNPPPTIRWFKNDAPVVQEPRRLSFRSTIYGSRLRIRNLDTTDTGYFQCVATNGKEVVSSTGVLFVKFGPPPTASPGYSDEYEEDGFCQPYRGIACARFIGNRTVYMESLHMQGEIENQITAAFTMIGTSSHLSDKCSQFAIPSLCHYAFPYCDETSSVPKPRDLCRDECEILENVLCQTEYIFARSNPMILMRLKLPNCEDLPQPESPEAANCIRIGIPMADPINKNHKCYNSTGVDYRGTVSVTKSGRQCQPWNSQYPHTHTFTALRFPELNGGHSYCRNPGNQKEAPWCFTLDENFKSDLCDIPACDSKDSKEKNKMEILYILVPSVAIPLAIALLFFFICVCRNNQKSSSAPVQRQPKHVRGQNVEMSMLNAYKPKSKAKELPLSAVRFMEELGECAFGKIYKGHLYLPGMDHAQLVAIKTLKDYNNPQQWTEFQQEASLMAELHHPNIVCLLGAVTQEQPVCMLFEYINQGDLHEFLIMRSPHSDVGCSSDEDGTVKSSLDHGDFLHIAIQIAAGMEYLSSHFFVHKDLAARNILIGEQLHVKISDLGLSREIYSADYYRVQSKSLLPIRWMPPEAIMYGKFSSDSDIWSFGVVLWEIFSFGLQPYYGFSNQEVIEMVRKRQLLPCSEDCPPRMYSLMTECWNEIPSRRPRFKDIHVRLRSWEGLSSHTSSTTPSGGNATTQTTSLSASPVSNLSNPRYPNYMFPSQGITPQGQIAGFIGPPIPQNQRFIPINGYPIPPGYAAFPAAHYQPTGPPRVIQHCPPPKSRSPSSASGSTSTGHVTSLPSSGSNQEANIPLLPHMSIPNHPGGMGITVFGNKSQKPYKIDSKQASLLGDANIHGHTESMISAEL
Description: (§1) In brief, anti-ROR1 antibodies were serially diluted in staining buffer (PBS containing 2% FBS). Antibody solution was incubated with 1×10⁵ cells at 4° C. for 1 hour. […] After 1-hour incubation at 4° C., cells were washed twice with staining buffer and subjected to flow cytometry. PR000374 (Bench marker 1) and non-relevant IgG isotype control (Crownbio) were used as positive and negative controls, respectively.

[2] = molecular target: T1, human ROR1 on cells (HEK293T-hROR1, …); assay: flow cytometry, PANC-1 cells
Description: as §1

[3] = molecular target: T2, Human ROR1-ECD-his (Acro Biosystems RO1-H522y) (human, UniProt Q01973 30-406); assay: ELISA, coated hu-ROR1-ECD-his
T2 construct: extracellular domain; bought protein; also called hROR1-ECD-his; hu-ROR1-ECD-his
T2 sequence (Q01973 30-406): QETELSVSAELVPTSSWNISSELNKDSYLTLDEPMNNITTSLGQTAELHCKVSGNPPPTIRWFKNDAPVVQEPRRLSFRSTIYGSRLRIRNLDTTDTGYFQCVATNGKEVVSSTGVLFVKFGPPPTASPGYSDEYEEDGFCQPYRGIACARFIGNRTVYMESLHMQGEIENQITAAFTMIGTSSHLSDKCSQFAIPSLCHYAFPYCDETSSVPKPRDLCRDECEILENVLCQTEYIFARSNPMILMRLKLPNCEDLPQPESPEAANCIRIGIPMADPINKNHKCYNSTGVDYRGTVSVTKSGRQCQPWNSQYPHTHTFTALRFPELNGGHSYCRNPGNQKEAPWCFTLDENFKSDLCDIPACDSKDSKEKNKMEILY
Description: (§2) Binding of recombinant anti-ROR1 antibodies to hu-ROR1-ECD-his was tested by ELISA. In brief, 1 μg/mL hu-ROR1-ECD-his was added to the 96-well plate, 100 μL each well, incubated at 4° C. overnight, washing the plates with 1×PBST 3 times, 300 ul/well, blocking the plates with 2% BSA in 1×PBST, 200 ul/well at 37° C. for 1 hour, anti-ROR1 antibodies were serially diluted in staining buffer (PBS containing 2% BSA). Antibody solution was added to the plate and incubates at 37° C. for 1 hour, washing the plates with 1×PBST 3 times, 300 ul/well, adding secondary antibody 100 ul/well and incubate at 37° C. for 1 hour, washing the plates with 1×PBST 3 times, 300 ul/well and then add 100 ul/well TMB for about 5 min, stop the reaction by adding 100 ul/well 2M H₂SO₄, read the plates with Molecular device spectra max plus384 at 450 nm and 570 nm.

[4] = molecular target: T1, human ROR1 on cells (HEK293T-hROR1, …); assay: flow cytometry, HEK293T-hROR1 cells
Description: as §1

[5] = molecular target: T3, cynomolgus ROR1 on CHO-K1-cynoROR1 cells (cynomolgus monkey, UniProt A0A2K5WTX7 30-937); assay: flow cytometry, CHO-K1-cynoROR1 cells
T3 construct: whole, on cells
Description: as §1

[6] = molecular target: T2, Human ROR1-ECD-his (Acro Biosystems …); assay: BLI, ROR1-His on HIS1K sensor, antibody in solution
Description: In the example, binding kinetics of anti-ROR1 antibodies to soluble ROR1 protein were analyzed by using Bio-Layer Interferometry (BLI) analysis on Fortebio Octet Red384 instrument (Fortebio).
In BLI analysis, recombinant anti-ROR1 antibodies was serially diluted with 10× kinetics buffer (Fortebio). Human ROR1-His proteins were diluted to 20 nM. Then the diluted antibodies, ROR1 proteins and regeneration buffer (10 mM glycine HCl pH 1.5) were added to 96-well plates (Greiner). Rate constants for association and dissociation were measured using HIS1K sensor (Fortebio). The sensor surface was regenerated after each binding experiment with regeneration buffer. The traces were processed using Octet Data Analysis Software (version 11.0, Pall ForteBio, CA, USA).

[7] = molecular target: T2, Human ROR1-ECD-his (Acro Biosystems …); assay: ELISA, plate coated with hu-ROR1-his at 1 µg/mL
Description: as §2

[8] = molecular target: T4, hu-ROR2-ECD-his (Acrobiosystems RO2-H52E5) (human, UniProt Q01974 34-403); assay: ELISA, plate coated with hu-ROR2-his at 1 µg/mL
T4 construct: extracellular domain; bought protein; also called Human ROR2 his-tagged protein; Human ROR2, His Tag
T4 sequence (Q01974 34-403): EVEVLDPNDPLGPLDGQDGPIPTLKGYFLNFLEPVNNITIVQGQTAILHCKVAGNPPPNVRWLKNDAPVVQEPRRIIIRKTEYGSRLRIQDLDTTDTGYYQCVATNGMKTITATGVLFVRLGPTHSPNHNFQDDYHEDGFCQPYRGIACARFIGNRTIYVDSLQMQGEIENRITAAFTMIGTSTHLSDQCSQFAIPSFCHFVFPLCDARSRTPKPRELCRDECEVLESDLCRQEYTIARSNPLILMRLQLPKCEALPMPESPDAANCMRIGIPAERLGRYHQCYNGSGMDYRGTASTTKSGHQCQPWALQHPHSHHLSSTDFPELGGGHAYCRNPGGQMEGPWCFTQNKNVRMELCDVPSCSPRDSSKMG
Description: as §2, with “1” for “Binding of recombinant anti-ROR1 antibodies to hu-ROR1-ECD-his was tested by ELISA. In brief, 1”, “hu-ROR2-ECD-his (Acrobiocystems, RO2-H52E5)” for “hu-ROR1-ECD-his”

[9] = molecular target: T1, human ROR1 on cells (HEK293T-hROR1, …); assay: flow cytometry on HEK293T-hROR1 cells, MFI (Mean)
Description: (§3) Binding of recombinant anti-ROR1 antibodies to human or cynomolgus ROR1-overexpressing cells was tested by flow cytometry. In this example, ROR1-expressing cell lines are HEK293T cell lines that had been transfected to express human ROR1 on the surface (HEK293T-hu ROR1, KYINNO BIOTECHNOLOGY CO., LTD, Catalog #KC-1018), CHO-K1 cell lines that had been transfected to express cynomolgus ROR1 (CHOK1-cyno ROR1), PANC-1 (ATCC, catalog: CRL-1469) or A549 cell lines (Shanghai Institute of Biochemistry and Cell Biology, Chinese Academy of Sciences).
as §1

[10] = molecular target: T3, cynomolgus ROR1 on CHO-K1-cynoROR1 cells; assay: flow cytometry, CHO-K1-cynoROR1 cells; remark: listed apart in the source
Description: as §3, §1

[11] = molecular target: T1, human ROR1 on cells (HEK293T-hROR1, …); assay: flow cytometry on PANC-1 cells, MFI (FITC-A Median)
Description: as §3, §1

[12] = molecular target: T3, cynomolgus ROR1 on CHO-K1-cynoROR1 cells; assay: flow cytometry on CHOK1-cynoROR1 cells, MFI (Mean) [bottom panel, letter not given]
Description: as §3, §1

[13] = molecular target: T1, human ROR1 on cells (HEK293T-hROR1, …); assay: flow cytometry, PANC-1 cells; remark: listed apart in the source
Description: as §1
Binding activity of the variants to PANC-1 cells were tested using the same method described in example 5.1. The results were shown in FIGS. 7-8 and Table 11 and Table 12.

[14] = molecular target: T1, human ROR1 on cells (HEK293T-hROR1, …); assay: flow cytometry on PANC-1 cells, MFI (Median-APC) [top panel]
[15] = molecular target: T1, human ROR1 on cells (HEK293T-hROR1, …); assay: flow cytometry on PANC-1 cells, MFI (Median-APC) [middle panel, letter not given]
[16] = molecular target: T1, human ROR1 on cells (HEK293T-hROR1, …); assay: flow cytometry on PANC-1 cells, MFI (Median-APC) [bottom panel, letter not given]

Max [2]: 10900
Max [10]: 27500
EC50 (read off the curve) [11]: ~20 nM
B2: PR005351 (antibody, human IgG1, V domains shown)
VH: QVQLVESGGGLVKPGGSLRLSCAASGFKLSDFQMSWIRQAPGKGLEWVAYIDTNGSTRYYAESVKGRFTLSRDNVKNSLNLQMNGLRAEDTALYYCARIPSYTSSWYEDFDHWGQGTLVTVSS
notes: HCAb (heavy chain-only, human IgG1 Fc), no light chain

TOP [13]: 80300
EC50 (read off the curve) [14]: ~0.8 nM
B6: PR007410 (antibody, V domains shown)
VH: EVQLVESGGGLVKPGGSLRLSCAASGFTFSDFYMSWIRQAPGKGLEWISYISSSGSYIHYADSVKGRFTISRDNAKNSLYLQMNSLRAEDTAIYYCARDIPSSSSDWVDLQFDYWGQGTLVTVSS
notes: bivalent form (HCAb) variant of PR005340, no light chain

TOP [13]: 87000
EC50 (read off the curve) [14]: ~0.4 nM
B7: PR007408 (antibody, V domains shown)
VH: B6 VH with I100M
notes: as for B6

TOP [13]: 77200
EC50 (read off the curve) [14]: ~0.5 nM
B9: PR007412 (antibody, V domains shown)
VH: B6 VH with Y57W, I100M, D109S
notes: as for B6

TOP [13]: 81300
EC50 (read off the curve) [15]: ~0.4 nM
B10: PR007418 (antibody, V domains shown)
VH: B6 VH with S52D, S56R, Y57P, I58L, H59A
notes: as for B6

TOP [13]: 87400
EC50 (read off the curve) [14]: ~0.8 nM
B11: PR007409 (antibody, V domains shown)
VH: B6 VH with Y57W
notes: as for B6

TOP [13]: 74500
EC50 (read off the curve) [16]: ~0.4 nM
B12: PR007423 (antibody, V domains shown)
VH: B6 VH with F32Y, S52D, S56R, Y57P, I58L, H59A
notes: as for B6

TOP [13]: 88900
EC50 (read off the curve) [15]: ~0.5 nM
B15: PR007414 (antibody, V domains shown)
VH: B6 VH with Y57T, I58R, H59Y, I100M
notes: as for B6

TOP [13]: 79500
EC50 (read off the curve) [16]: ~0.7 nM
B16: PR007420 (antibody, V domains shown)
VH: B6 VH with Y57T, I58R, H59Y, I100M, D109S
notes: as for B6

TOP [13]: 87600
EC50 (read off the curve) [15]: ~0.7 nM
B17: PR007416 (antibody, V domains shown)
VH: B6 VH with S52N, S53T, S54R, Y57P, H59G
notes: as for B6

More lines, now with the values behind:

B1: PR303147 (antibody, human IgG1, V domains shown)
VH: EVQLVESGGGLVQPGGSLRLSCAASGFTFSNFWMYWVRQAPGKGLVWVSRINSDGSSTNYADSVKGRFTISRDNAKNTLYLQMNSLRVEDTAVYSCAREGSGWYEDFDYWGQGTLVTVSS
notes: as for B2
EC50 [1]: 6.46 µg/mL
MAX(MFI) [1]: 412000 MFI
EC50 [2]: 7.77 µg/mL
MAX(MFI) [2]: 291000 MFI
EC50 [3]: 0.023 µg/mL
EC50 [4]: 0.325 µg/mL
MAX(MFI) [4]: 1.46e+07 MFI
EC50 [5]: 1.26 µg/mL
MAX(MFI) [5]: 3.67e+06 MFI
Kd [6]: 11.2 nM
koff [6]: 0.0165 s⁻¹
kon [6]: 1.47e+06 M⁻¹ s⁻¹
EC50 (read off the curve) [7]: ~0.02 µg/mL
binding result [8]: no binding (tested: about 15 µg/ml)
EC50 (read off the curve) [9]: ~0.3 µg/mL

B3: PR303201 (antibody, human IgG1, V domains shown)
VH: EVQLLESGGGLVQPGGSLRLSCAASGFTFSGNAMSWVRQAPGKGLEWVSAISGSGDKTYYAASVKGRFTISRDNSNNTVYLQMNSLRAEDTAVYYCEKGAFRTTMDYWGQGTLVTVSS
notes: as for B2
EC50 [1]: 0.08 µg/mL
MAX(MFI) [1]: 1.23e+06 MFI
MAX(MFI) [2]: 935000 MFI
EC50 [3]: 0.004 µg/mL
EC50 [4]: 0.066 µg/mL
MAX(MFI) [4]: 1.55e+07 MFI
EC50 [5]: 0.057 µg/mL
MAX(MFI) [5]: 1.07e+07 MFI
Kd [6]: 4.89 nM
koff [6]: 0.00626 s⁻¹
kon [6]: 1.28e+06 M⁻¹ s⁻¹
EC50 (read off the curve) [7]: ~0.004 µg/mL
binding result [8]: no binding (tested: about 15 µg/ml)
EC50 (read off the curve) [9]: ~0.06 µg/mL
EC50 (read off the curve) [12]: ~0.06 µg/mL

B4: PR007411 (antibody, V domains shown)
VH: B6 VH with Y57T, I100M
notes: as for B6
TOP [13]: 81400
EC50 (read off the curve) [14]: ~0.7 nM

B5: PR007415 (antibody, V domains shown)
VH: B6 VH with S52D, S56R, Y57P, I58L, H59A, I100M
notes: as for B6
TOP [13]: 82800
EC50 (read off the curve) [15]: ~0.4 nM

B8: PR007413 (antibody, V domains shown)
VH: B6 VH with S52N, S53T, S54R, Y57P, H59G, I100M
notes: as for B6
TOP [13]: 89800
EC50 (read off the curve) [15]: ~0.6 nM

B13: PR007419 (antibody, V domains shown)
VH: B6 VH with S52N, S53T, S54R, Y57P, H59G, I100M, D109S
notes: as for B6
TOP [13]: 75700
EC50 (read off the curve) [16]: ~0.8 nM

B14: PR007422 (antibody, V domains shown)
VH: B6 VH with S52D, S56R, Y57P, I58L, H59A, D109S
notes: as for B6
TOP [13]: 73600
EC50 (read off the curve) [16]: ~0.6 nM
